Results taken from patent US8828401B2, “Cytotoxic peptides and antibody drug conjugates thereof” (Pfizer Inc., priority 2011, dated 2014).

B1: ch75-mc0131 (conjugate)
VH: QVKLLQSGAALVKPGASVKMSCKASGYAFTDYWVTWVKQSHGKSLEWIGEISPNSGGTNFNEKFKGKATLTVDKSTSTAYMELSRLTSEDSAIYYCTRGEIRYNWFAYWGQGTLVTVSS
VL: DIQMTQSPSSLSASVGDRVTITCKASQNVGNNIAWYQQKPGKAPKLLIYYASNRYTGVPSRFSGSGYGTDFTLTISSLQPEDFATYYCQRLYNSPFTFGGGTKVEIK
B2: ch75-mc3377 (conjugate)
VH: QVKLLQSGAALVKPGASVKMSCKASGYAFTDYWVTWVKQSHGKSLEWIGEISPNSGGTNFNEKFKGKATLTVDKSTSTAYMELSRLTSEDSAIYYCTRGEIRYNWFAYWGQGTLVTVSS
VL: DIQMTQSPSSLSASVGDRVTITCKASQNVGNNIAWYQQKPGKAPKLLIYYASNRYTGVPSRFSGSGYGTDFTLTISSLQPEDFATYYCQRLYNSPFTFGGGTKVEIK
B3: ch28-mc0131 (conjugate)
VH: EVQLVESGGGLVQPGRSLTLSCVASGFTFRDYGMTWIRQAPGKGLTWVAYISSGSNYIYYAEAVKGRFTISRDNAKNTLYLQMTSLRSEDTALYFCTRRGPFVLDAWGQGASVTVSS
VL: DIQMTQSPSFLSASVGDRVTINCKASQSINRYLHWFQQKLGEAPKLLIYNANGLQTGIPSRFSGSGSGTDFTLTISSLQSEDVATYFCLQHNTWPDTFGAGTKLELK
B4: ch28-MalPeg6C2-0131 (conjugate)
VH: EVQLVESGGGLVQPGRSLTLSCVASGFTFRDYGMTWIRQAPGKGLTWVAYISSGSNYIYYAEAVKGRFTISRDNAKNTLYLQMTSLRSEDTALYFCTRRGPFVLDAWGQGASVTVSS
VL: DIQMTQSPSFLSASVGDRVTINCKASQSINRYLHWFQQKLGEAPKLLIYNANGLQTGIPSRFSGSGSGTDFTLTISSLQSEDVATYFCLQHNTWPDTFGAGTKLELK
B5: ch28-mc8261 (conjugate)
VH: EVQLVESGGGLVQPGRSLTLSCVASGFTFRDYGMTWIRQAPGKGLTWVAYISSGSNYIYYAEAVKGRFTISRDNAKNTLYLQMTSLRSEDTALYFCTRRGPFVLDAWGQGASVTVSS
VL: DIQMTQSPSFLSASVGDRVTINCKASQSINRYLHWFQQKLGEAPKLLIYNANGLQTGIPSRFSGSGSGTDFTLTISSLQSEDVATYFCLQHNTWPDTFGAGTKLELK
B6: ch28-me0131 (conjugate)
VH: EVQLVESGGGLVQPGRSLTLSCVASGFTFRDYGMTWIRQAPGKGLTWVAYISSGSNYIYYAEAVKGRFTISRDNAKNTLYLQMTSLRSEDTALYFCTRRGPFVLDAWGQGASVTVSS
VL: DIQMTQSPSFLSASVGDRVTINCKASQSINRYLHWFQQKLGEAPKLLIYNANGLQTGIPSRFSGSGSGTDFTLTISSLQSEDVATYFCLQHNTWPDTFGAGTKLELK
B7: ch28-MalPeg6C2-8261 (conjugate)
VH: EVQLVESGGGLVQPGRSLTLSCVASGFTFRDYGMTWIRQAPGKGLTWVAYISSGSNYIYYAEAVKGRFTISRDNAKNTLYLQMTSLRSEDTALYFCTRRGPFVLDAWGQGASVTVSS
VL: DIQMTQSPSFLSASVGDRVTINCKASQSINRYLHWFQQKLGEAPKLLIYNANGLQTGIPSRFSGSGSGTDFTLTISSLQSEDVATYFCLQHNTWPDTFGAGTKLELK
B8: ch28-mc3377 (conjugate)
VH: EVQLVESGGGLVQPGRSLTLSCVASGFTFRDYGMTWIRQAPGKGLTWVAYISSGSNYIYYAEAVKGRFTISRDNAKNTLYLQMTSLRSEDTALYFCTRRGPFVLDAWGQGASVTVSS
VL: DIQMTQSPSFLSASVGDRVTINCKASQSINRYLHWFQQKLGEAPKLLIYNANGLQTGIPSRFSGSGSGTDFTLTISSLQSEDVATYFCLQHNTWPDTFGAGTKLELK

Tests used:
Assay in all cases: In vitro cytotoxicity assay with anti-Notch ADCs (MTS)
Assay type in all cases: cell-based
Conditions in all cases: average of 2-4 repeats where ± S.E.M. is given
[1] = tested on: OVCAR3 (ovarian cancer)
Experimental: (§1) The effects of anti-Notch ADCs were assessed on 1) cell lines endogenously expressing Notch protein: HCC2429 (lung cancer), OVCAR3 (ovarian cancer) and MDA-MB-468 (breast cancer), 2) cell lines engineered to over-express Notch protein: MDA-MB-468/hNotch and U2OS/hNotch, and 3) a negative control cell line (SW900) using an MTS cellular viability indicator (Promega, Madison, Wis.). These cell lines were cultured with increasing concentrations of anti-Notch ADCs comprising humanized anti-Notch antibodies, hu28 and hu75, and rat-human chimeric anti-Notch antibodies, ch28 and ch75, conjugated to various linker-payload combinations of the present invention. As a specificity control for the anti-Notch-ADCs, non-targeted control-ADCs (huNeg8.8-ADCs or ch2H6-ADCs) were also tested on the same cell lines. After four days, viability of each culture was assessed. IC50 values were calculated by logistic non-linear regression and presented as ng Ab/mL. The drug antibody ratio (DAR) is also provided.

[2] = tested on: MDA-MB-468 (breast cancer)
Experimental: as §1

[3] = tested on: U2OS/hNotch
Experimental: as §1

[4] = tested on: HCC2429 (lung cancer)
Experimental: as §1

| Molecule | IC50 (ng Ab/mL) ± S.E.M. [1] [ng Ab/mL] | IC50 (ng Ab/mL) ± S.E.M. [2] [ng Ab/mL] | IC50 (ng Ab/mL) ± S.E.M. [3] [ng Ab/mL] | IC50 (ng Ab/mL) ± S.E.M. [4] [ng Ab/mL] |
| --- | --- | --- | --- | --- |
| B1 | 289 | 8202 ± 2773.0 | 19 | 671 ± 406.5 |
| B2 |  | 560 |  |  |
| B3 | 6 ± 1.0 | 35 ± 18.5 | 3 ± 0.5 | 251 ± 77.5 |
| B4 | 10 ± 2.0 | 10 ± 1.0 | 3 ± 0.85 |  |
| B5 |  | 12147 ± 4806.4 |  |  |
| B6 | 8 ± 2.0 | 24 ± 14.0 | 3 ± 1.15 | 30 |
| B7 |  | 83 ± 35.5 |  |  |
| B8 | 14 ± 5.5 | 27 ± 11.3 | 3 ± 0.5 |  |
